{"source": "patent US20030119038A1", "about": "“NARC1, novel subtilase-like homologs” (priority 1999, published 2003)", "key": {"Ntera2 cells": {"system": "Ntera2 cells", "assay": "NARC1-EGFP transfection of Ntera2 cells, nuclear area condensation", "format": "cell-based, human", "conditions": "C-terminal EGFP constructs, 24 hours", "method": "Specifically, Ntera2 cells were transfected with C-terminal EGFP constructs of wild-type NARC1, each of the point-mutant NARC1s, and caspase 9. At 24 hours, nuclear area condensation was assessed for the entire Ntera2 cell population and compared to nuclear area condensation for the transfected cell population."}, "[1]": {"system": "cerebellar granule neurons (CGNs)", "assay": "Apoptosis after transient expression of NARC1-EGFP constructs in CGNs, Laser-Scanning Cytometry", "format": "cell-based, rat", "conditions": "EGFP construct transiently expressed in CGNs, percentage of GFP-positive cells undergoing apoptosis", "text": "Cerebellar granule neurons (CGNs) were transfected with a NARC1-enhanced green fluorescent protein (EGFP) expression construct (with the EGFP sequences located at the carboxy terminus of the fusion protein). Unless otherwise indicated, the construct utilized in the following experiments contained 2073 base pairs of the rat NARC1 transcript set forth in FIG. 5. Specifically, this corresponds to nucleotides 205-2277 and amino acid residues 56-746 of SEQ ID NO:4 and SEQ ID NO:3, respectively. The polypeptide sequence encoded by the NARC1 insert utilized herein has been set forth as SEQ ID NO:9 herein. The nucleotide sequence of this insert has been set forth as SEQ ID NO:10.\nTo investigate NARC1-mediated neuronal cell death, transient expression of the EGFP clones was carried out in cerebellar granule neurons (CGNs). These studies are set forth in detail as follows."}, "NARC1 [2]": {"molecular_target": "T1, NARC1 (Rattus norvegicus, UniProt P59996)", "T1 construct": "made in house; host or cells: E. coli", "assay": "Autoprocessing of NARC1 expressed in E. coli", "method": "The N-terminus of the processed protein was determined by protein microsequencing."}, "NARC1 [3]": {"system": "NARC1", "assay": "Autoprocessing of NARC1 transiently expressed in COS-7 cells, Western blotting", "format": "cell-based, rat", "method": "The wild-type NARC1-myc/His clone was transiently expressed in COS-7 cells. The cells were then harvested, lysed, and the protein extracted. Polyacrylamide gel electrophoresis was then carried out on the protein extracts, followed by Western blotting. The resulting membranes were probed using both anti-myc- and NARC1-specific antibodies. Routine techniques and protocols were followed. See, e.g., Ausubel et al.(1998), supra.\nThis cleavage event maps to approximately the junction between the pro-domain and the enzymatic domain.\nAutoprocessing of NARC1 was investigated as follows. COS-7 cells were co-transfected with the following EGFP and myc plasmids: (A) wild-type NARC1-myc and wild-type NARC1-EGFP; (B) S385A NARC1-myc and S385A NARC1-EGFP; and (C) wild-type NARC1-myc and S385A NARC1-myc. The cells were then harvested, lysed, and the protein extracted. Polyacrylamide gel electrophoresis was then carried out on the protein extracts, followed by Western blotting. The resulting membranes were sequentially probed using first the anti-myc and then the anti-EGFP monoclonal antibodies (Abs). Thus, the experiment allowed sequential detection of the separate NARC1 products encoded from the two co-transfected plasmids.\nAs indicated above, a series of C-terminal truncation mutants were generated. The truncation NARC1-myc/His clones were transiently expressed in COS-7 cells. The cells were then harvested, lysed, the protein extracted, and polyacrylamide gel electrophoresis carried out on the protein extracts. Western analysis was then carried out using both anti-myc and NARC1-specific antibodies."}, "SY5Y cells": {"system": "SY5Y cells", "assay": "NARC1 overexpression in SY5Y cells, nuclear condensation by Hoechst assay", "format": "cell-based, human", "method": "Wild-type and mutant NARC1 were overexpressed in SY5Y cells (a human neuroblastoma cell line). Nuclear condensation was assessed by Hoechst assay."}}, "data": [{"molecule": "wild-type NARC1: rat NARC1 subtilase-like protein, residues 56-746 of SEQ ID NO:3, expressed as C-terminal EGFP or myc/His fusion (protein, C-terminal EGFP or myc/His tag; rattus norvegicus) MGIRCSTWLRWPLSPQLLLLLLLCPTGSRAQDEDGDYEELMLALPSQEDSLVDEASHVATATFRRCSKEAWRLPGTYVVVLMEETQRLQVEQTAHRLQTWAARRGYVIKVLHVFYDLFPGFLVKMSSDLLGLALKLPHVEYIEEDSLVFAQSIPWNLERIIPAWQQTEEDSSPDGSSQVEVYLLDTSIQSGHREIEGRVTITDFNSVPEEDGTRFHRQASKCDSHGTHLAGVVSGRDAGVAKGTSLHSLRVLNCQGKGTVSGTLIGLEFIRKSQLIQPSGPLVVLLPLAGGYSRILNTACQRLARTGVVLVAAAGNFRDDACLYSPASAPEVITVGATNAQDQPVTLGTLGTNFGRCVDLFAPGKDIIGASSDCSTCYMSQSGTSQAAAHVAGIVAMMLNRDPALTLAELRQRLILFSTKDVINMAWFPEDQRVLTPNRVATLPPSTQETGGQLLCRTVWSAHSGPTRTATATARCAPEEELLSCSSFSRSGRRRGDRIEAIGGQQVCKALNAFGGEGVYAVARCCLLPRVNCSIHNTPAARAGPQTPVHCHQKDHVLTGCSFHWEVENLRAQQQPLLRSRHQPGQCVGHQEASVHASCCHAPGLECKIKEHGIAGPAEQVTVACEAGWTLTGCNVLPGASLPLGAYSVDNVCVARIRDAGRADRTSEEATVAAAICCRSRPSAKASWVHQ", "values": [{"measurement": "Sensitivity of cells to expression (nuclear area condensation)", "setting": "Ntera2 cells", "result": "some sensitivity"}, {"measurement": "Resulting Cell Death Activity", "setting": "[1]", "result": "moderately pro-apoptotic"}, {"measurement": "Resulting Cell Death Activity", "setting": "[1]; listed as NARC1-EGFP", "result": "increase in apoptosis"}, {"measurement": "Autoprocessing", "setting": "NARC1 [2]", "result": "underwent autoprocessing"}, {"measurement": "Autoprocessing Activity", "setting": "NARC1 [3]; C-terminal myc/His fusion transiently expressed in COS-7 cells, 60 kD processing product on Western blot", "result": "normal autoprocessing"}, {"measurement": "Intermolecular cleavage of co-expressed S385A mutant", "setting": "NARC1 [3]; COS-7 cells co-transfected with wild-type and S385A NARC1 carrying different tags, anti-myc then anti-EGFP Western", "result": "absence of intermolecular cleavage"}, {"measurement": "Promotion of cell death (nuclear condensation)", "setting": "SY5Y cells", "result": "does not promote cell death"}]}]}
